Results reported in the nanobody polyreactivity screen of Harvey et al. (2022).

assay: yeast display, Sf9 membrane polyspecificity reagent, FACS + sequencing; frameworks hold sequencing errors
Method in brief: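 Nanobodies from a synthetic yeast display library (Saccharomyces cerevisiae BJ5465), induced 36–48 hours with galactose, were stained 1 hour at 4 °C with 10% biotinylated, detergent-solubilized Sf9 membrane reagent, enriched on streptavidin microbeads, then FACS-sorted. Anti-HA (expression) and streptavidin (reagent binding) fluorescence set low and high (top ~1%) gates. Polyreactivity labels come from the gate of origin. Genes were colony-PCR amplified, MiSeq 2 × 250 sequenced and filtered by CDR length.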

Sequence | polyreactivity (PSR sort gate)
QVQLVESGGGLVQAGGSLRLSCAASGRTFVPYVMGWYRQAPGKERELVATINWSGGSTYYADSVKGRFTISRDNAKNTVYLQMNSLKPEDTAVYYCAADYYWTYSYYYERFDYWGLGTQVTVSS | low polyreactivity
QVQLVESGGGLVQAGGSLRLSCAASGRTFVPYVMGWYRQAPGKESELVASITSGGSTYYADSVKGRFTISRDNAKNTVYLQMNSLKPEDTAVYYCATRQSAERWGYYYWGQGTQVTVSS | low polyreactivity
QVQLVESGGGLVQAGGSLRLSCAASGRTFVRNAMGWYRPAPGKERELVAAISSIGDSTYYADSVKGRFTISRDNAKNTVYLQMNSLKPEDTAVYYCAAEWVTSYYNYYHWGQGTQVTVSS | low polyreactivity
QVQLVESGGGLVQAGGSLRLSCAASGRTFVRNAMGWYRQAPGKERELVAAISRGGRTNYADSVKGRFTISRDNAKNTVYLQMNSLKPEDTPVYYCATGAGYYSDYDYWGQVTQVTVSS | high polyreactivity
QVQLVESGGGLVQAGGSLRLSCAASGRTFVRNAMGWYRQAPGKERELVAAISSIGDSTYYADSVKGRFTISRDNAKNTVYLQMNSLKPEDTAVYYWAAEWVTSYYNYYHWGQGTLVTVSS | low polyreactivity
QVQLVESGGGLVQAGGSLRLSCAASGRTFVRNAMGWYRQAPGKERELVATIRSGGSTNYADSVKGRFTISRDNAKNTVYLQMNSLKPEDTAVYYCATQGSRARYDYYYWGQGTQVTVSS | high polyreactivity
QVQLVESGGGLVQAGGSLRLSCAASGRTFVRYAMGWYRQAPGKERELVARITSRGTSTYYADSVKGRFTISRDNAKNTVYLQMNSLKPEDTAVYYCNKVSTFREKSRYDYWGQGTQVTVSS | low polyreactivity
QVQLVESGGGLVQAGGSLRLSCAASGRTFVRYTMGWYRQAPGKERELVAAISISGGRTYYADSVQGRFTISRDNAKNTVYLQMNSLKPEDTAVYYCAKDYLGGQLASTGGYDYWGLGTQVTVSS | low polyreactivity
QVQLVESGGGLVQAGGSLRLSCAASGRTFVSNAMGWYRQAPGKERELVAAISGSGGITYYADSVKGRFTISRDNAKNTVYLQMNSLKPEDTAVYYCNADSSGWFPFDYWGQGTQVTVSS | low polyreactivity
QVQLVESGGGLVQAGGSLRLSCAASGRTFVSYAMGWYRQAPGKERELVADITIGGSTNYADSVKGRFTISRDNAKNTVYLLMNSLKPEDTAVYDCAAYYSYPWDTVTTVDLYDYWGQGTQVTVSS | low polyreactivity
QVQLVESGGGLVQAGGSLRLSCAASGRTFVSYAMGWYRQAPGKERELVATITGSTGGTYYADSVKGRFTISRDNAKNTVYLQMNSLKPEDTAVYYCAADRTTYTYYLPYDYWGQGTQVTVSS | low polyreactivity
QVQLVESGGGLVQAGGSLRLSCAASGRTFVSYVMGWYRQAPGKERELVAAITWRGGSTYYADSVKGRFTISRDNAKNTVYLQMNSLKPEDTAVYYCAAPSHGSTSDRYYKFYYWGQGTQVTVSS | high polyreactivity
QVQLVESGGGLVQAGGSLRLSCAASGRTFVTNAMGWYRQAPGKERELVAAISSNGGSTYYADSVKGRFTISRDNAKNTVFLQMNSLKPEDTAVYYCNAEGQPLYVSWHDHRYIYGFDYWGQGTQVSVSS | low polyreactivity
QVQLVESGGGLVQAGGSLRLSCAASGRTFVTYAMGWYRQAPGKERELVAAISKRGSRTYYADSVKGRFTISRDNAKNTVYLQMNSLKPEDTAVYYCNADPYRTSYDYWGQGTQVTVSS | high polyreactivity
QVQLVESGGGLVQAGGSLRLSCAASGRTFVTYAMGWYRQAPGKERELVATINYSGGSTNYADSVKGRFTISRDNAKNTVYLQMNSLKPEDTAVYYCNTVPRQHRPGDYWGQGTQVTVSS | low polyreactivity
QVQLVESGGGLVQAGGSLRLSCAASGRTFVVNAMGWYRQAPGKEREFVAAISYRGDSTYYADSVKGRFTISRDNAKNTVYLQMNSLKPEDSAVYYCAARVLGPGRRYYYWGQGTQVTLSS | high polyreactivity
QVQLVESGGGLVQAGGSLRLSCAASGRTFVVNAMGWYSPAPGKEREFVAGISVRGGITYYADSVKGRFTISRDNAKNTVYLQMNSLKPEDTAVYYCAAYILDYGGDQRIFDYWGQGTQVTVSS | low polyreactivity
QVQLVESGGGLVQAGGSLRLSCAASGRTFVVYAMGWYRQAPGKERELVAAISYSGGSTYYADSVKGRFTISRDNAKNTVYLQMNSLKPEDTAVYYCAAVHLGYYHIYGLGYWGQGTQVTVSS | high polyreactivity
QVQLVESGGGLVQAGGSLRLSCAASGRTFVVYAMGWYRQAPGKERELVAGSGSTFYADSVKGRFTISPDNAKNTVYLQMNSLKPEDTAVYYCAADHPALYSLDWDTAYDYWGQGTQVTVSS | low polyreactivity
QVQLVESGGGLVQAGGSLRLSCAASGRTFVVYAMGWYRQAPGKERELVAVISFTGDSTFYADSVKGRFTISRDNSKNTVYLQMNSLKPEDTAVYYCAADFRRVFSKYSYYLYFDFDYWGQGTQVTVSS | low polyreactivity
QVQLVESGGGLVQAGGSLRLSCAASGRTFVWNAMGWYRQAPGKERELVAAITSGGSTNYADSVKGRFTISRDNAKNTVYLQMNSLKPEDTAVYYCAADWQYSPRMDYWGQGTQVTVSS | low polyreactivity

Sequence | polyreactivity (PSR sort gate)
QVQLVESGGGLVQAGGSLRLSCAASGRTFVYNAMGWYRQAPGKERELVAAISAIDGSTYYADSVKGRFTISRDNAKNTVYLQMNSLKPEDTAVYYCAADTQLEASHKDRYEYDYWGQGTQVTVSS | low polyreactivity
QVQLVESGGGLVQAGGSLRLSCAASGRTFVYNAMGWYRQAPGKERELVAAISQSGGSTYYADSVKGRFTISRDTAKNSVYLQMNSLKPEVTAVYDCAARYTTGSYVRYNFWGQGTQVTVSS | high polyreactivity
QVQLVESGGGLVQAGGSLRLSCAASGRTFVYNAMGWYRQAPGKERELVATITSSGNTYYADSVKGRFTISRDNAKNTVYLQMNSLKPEDTAVYYCNRRYWTSGYWGQGTQVTVSS | high polyreactivity
QVQLVESGGGLVQAGGSLRLSCAASGRTFVYNAMVWYRQAPGKEREFVAAISWRGGSTFYADSVKGRFTISRDNAKNTVYLQMNSLKPEDTAVYYCAAEGWYYRYDYWGQGTQVTVSS | high polyreactivity
QVQLVESGGGLVQAGGSLRLSCAASGRTFVYYAMGWYRQAPGKERELVAAIRRDTRTYYADSVKGRFTISRDNAKNTVYLQMNSQTPEDTAVYYCAADDPWHYDFDYWGQGTQVTVSS | low polyreactivity
QVQLVESGGGLVQAGGSLRLSCAASGRTFVYYAMGWYRQAPGKERELVAAISSGGSTYYADSVKGRFTISRDNAKNTVYLQMNSLKPEDTAVYYCNALRYTHYLLTYGYWGQGTQVTVSS | high polyreactivity
QVQLVESGGGLVQAGGSLRLSCAASGRTFVYYAMGWYRQAPGKERELVAAITSGGGTNYADSVKGRFTISRDNAKNSVYLQMNSLKPEDTAVYYCNADPRWYHFEYGYWGQGTQVTVSS | high polyreactivity
QVQLVESGGGLVQAGGSLRLSCAASGRTFVYYDMGWYRQAPGKERELVAAISRRGDTTYYADSVKGRFTISRDNAKNTVYLQMNSLKPVDTAVYYCNARSIKYGSWGQGTQVTVSS | high polyreactivity
QVQLVESGGGLVQAGGSLRLSCAASGRTFWAYALGWYRQGPGKERELVAAITTSGGSTNYADSVKGRFTISRDNAKNTVYVQLHSLKPEDTAVYYCNADPTYPVVNGVGYWGQGTQVTVSS | low polyreactivity
QVQLVESGGGLVQAGGSLRLSCAASGRTFWDYAMGWYRQAPGKERELVAAITGGITNYADSVKGRFTISRDNAKNTVYLQMNSLKPEDTAVYYCAVYYRRWFSRYDYWGQGTQVTVSS | low polyreactivity
QVQLVESGGGLVQAGGSLRLSCAASGRTFWDYGMGWYRQAPGKERELVATISGNGGDTYYADSVKGRFTISRDNAKNTVYLQMNSLKPEDTAVYYCAAAWPSTGLLYVLGYSGYGYWGQGTQVTVSS | low polyreactivity
QVQLVESGGGLVQAGGSLRLSCAASGRTFWFNAMGWYRQAPGKERELVASITLSGGSTYYADSVKGRFTISRDNAKITVYLQMNSLKPEDTAVYYCAADQTVHISSYDYWGQGTQVTVSS | low polyreactivity
QVQLVESGGGLVQAGGSLRLSCAASGRTFWFYDMGWYRQAPGKEREFVASITSSGGSTYYADSVKGRFTISRDIAKNTVYLQMNSLKPEDTAVYYCAASFYWTTRYSREYDYWGQGTQVTVSS | high polyreactivity
QVQLVESGGGLVQAGGSLRLSCAASGRTFWGYAMGWYRQAPGKERELVAAISCRGGRTYYADSVKGRFTISRDNAKNTVYLQMNSLKPEDTAVYYCNRAYLLRPDLYDYWGQGTQVTVSS | low polyreactivity
QVQLVESGGGLVQAGGSLRLSCAASGRTFWGYAMGWYRQAPGKERELVAAISWSGTSTYYADSVKGRFTISRDNAKNTVYLQMNRLKPEDSAVYYCARAVNDWSRKYNYWGQGTLVTVSS | high polyreactivity
QVQLVESGGGLVQAGGSLRLSCAASGRTFWKYAMGWSRQAPGKERELVAAITDDDSTDYADSVKGRFTISRDNAKNTVYLQMTSLKPEYTAVYYCNADSSRYYRALEYWGQGTQVTVSS | low polyreactivity
QVQLVESGGGLVQAGGSLRLSCAASGRTFWKYAMGWYRQAPGKERELVAAISSSGGNTYYADSVKGRFTISRDNAKNSVYLQMNSLKPEDTAVYYCAARLPRGAYYYWGQGTQVTVSS | high polyreactivity
QVQLVESGGGLVQAGGSLRLSCAASGRTFWNNAMGWYRQAPGKERELVAAISVRGGSTYYADSVKGRFTISRDNAKNTVYLQMNSLKPEDTAVYYCATRSRGWIAPPWQGSDGYYYWGQGTQVTVSS | low polyreactivity
QVQLVESGGGLVQAGGSLRLSCAASGRTFWNYAMGWSRQAPGKERELVAVIRFSDGSTYYADSVKGRFTISRDNAKNTVYLQMNSLKPEDTAVYYCAAKGPRRWGSGFDYWGQGTQVTVSS | low polyreactivity
QVQLVESGGGLVQAGGSLRLSCAASGRTFWNYAMGWYRQAPGKERELVAVIRFSDGSTYYADSVKGRFTISRDNAKNTGYLQMISLKPEDTAVFYCAAKGPRRWGSGFDYWGQGTQVTVSS | low polyreactivity
